Assay results reported in PMC8979313.

Target: T1, Pr(brC)2 (UniProt P03069 226-249+=GC, internal_change)
T1 chain: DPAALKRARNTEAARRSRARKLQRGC
Assay: EMSA

B1: Random (dsDNA)
DNA 1: AGCGCACGTCCTGCACGTC
DNA 2: GACGTGCAGGACGTGCGCT
Does B1 bind?
Result: no binding
